The record followed here is paper PMC5283164.

By stoichiometry N is commonly meant a count of units in the complex or per binding partner.

Assay [1] has as its target SNP-treated (S-nitrosylated) pea chloroplast 2-Cys Prx (Pisum sativum (pea)). Put plainly: SEC; Superdex-200 HR 10/30, 50 mM Tris-HCl pH 7.5, 150 mM NaCl; DTT-reduced protein incubated with 750 uM SNP, excess removed. Background: Size exclusion chromatography separates by hydrodynamic size, large species first.
Assay [2] addresses chloroplast 2-Cys Prx from pea (Pisum sativum), recombinant, not glutathionylated (Pisum sativum (pea)). Put plainly: SEC; Superdex-200 HR 10/30, room temperature, 50 mM Tris-HCl pH 7.5, 150 mM NaCl, 0.5 mL/min; untreated (native) protein.
Assay [3] has the same target. The assay is described as follows: SEC; Superdex-200 HR 10/30, room temperature, 50 mM Tris-HCl pH 7.5, 150 mM NaCl; protein (50 uM) reduced with 10 mM DTT for 30 min, excess DTT removed.
Assay [4] has as its target glutathionylated pea mitochondrial Prx IIF (Cys59-SG, Cys84-SG) (Pisum sativum (pea)). The assay is described as follows: SEC; Superdex-200 HR 10/30, 50 mM Tris-HCl pH 7.5, 150 mM NaCl; DTT-reduced protein incubated with 5 mM GSSG at 4 C for 24 h, excess removed.
Assay [5] shares this target. The assay is described as follows: SEC; Superdex-200 HR 10/30, 50 mM Tris-HCl pH 7.5, 150 mM NaCl; DTT-reduced protein incubated with 5 mM GSNO at room temperature (different incubation times for 2-Cys Prx), excess removed.
Assay [6] concerns the target mitochondrial Prx IIF from pea (Pisum sativum), recombinant, not glutathionylated (Pisum sativum (pea)). Put plainly: SEC; Superdex-200 HR 10/30, room temperature, 50 mM Tris-HCl pH 7.5, 150 mM NaCl, 0.5 mL/min; untreated (native) protein.
Assay [7] shares this target. Put plainly: SEC; Superdex-200 HR 10/30, room temperature, 50 mM Tris-HCl pH 7.5, 150 mM NaCl; protein (50 uM) reduced with 10 mM DTT for 30 min, excess DTT removed.

In the case of “SNP-treated (S-nitrosylated) pea chloroplast 2-Cys Prx (enzyme)”, the stoichiometry N in assay [1] turned out to be 10. Consider “chloroplast 2-Cys Prx from pea (Pisum sativum), recombinant, not glutathionylated (enzyme)”, for which the stoichiometry N was determined as 2 in assay [2] and 10 in assay [3]. As to “glutathionylated pea mitochondrial Prx IIF (Cys59-SG, Cys84-SG) (enzyme)”, the stoichiometry N in assay [4] and in assay [5] was 2 throughout. Take “mitochondrial Prx IIF from pea (Pisum sativum), recombinant, not glutathionylated (enzyme)”: the results for the stoichiometry N in assay [6] and in assay [7] were 6 and 2, respectively.
